Experimental data as given in patent publication US20240068004A1 (MBRACE THERAPEUTICS, published 2024).

B1: anti-GRP78 antibody clone B4 (antibody, IgG1, V domains shown)
VH: QVRLQESGPGLVKPSQTLSLTCTVSGGSISSGGYYWSWIRQHPGKGLEWIGYIYYSGSTYYNPSLESRVTISVDTSKNQFSLKLSSVTAADTAVYYCARYSSIDAFEIWGQGTMVTVSS
VL: SYVLTQPPSVSVAPGKTATITCGGDDIGSKSVHWYQQKPGQAPVLVVYDDGDRPSGIPERFSGSNSGNTATLAISRVEAGDEADYYCQVWDSSSDQYVFGSGTKLTVL
notes: Fully human mAb formatted as full-length IgG1; also called B4 mAb
B2: anti-GRP78 antibody clone F6 (antibody, IgG1, V domains shown)
VH: QVQLQQSGPGLVKPPQTLSLTCAISGDSVSSNSAAWNWIRQSPSRGLEWLGRTYYRSKWYNDYAVSVKSRITINPDTSKNQFSLQLNSVTPEDTAVYYCARDPYYYDSSGYYYFDAFDIWGQGTMVTVSS
VL: SYELTQPHSVSVAPGQTARITCGGDNIGSKSVHWYQQRPGQAPVLVVYDDSDRPSGIPERFSGSNSENTATLTISGVEAGDEADYYCQVWDSTSHHVVFGGGTKLTVL
notes: Fully human mAb formatted as full-length IgG1; also called F6 mAb

What was measured:
Assay in all cases: alanine scan, high-throughput flow cytometry
[1] = target: T1, GRP78 alanine scanning variant R261A (human, UniProt P11021 19-654)
T1 construct: Member of the alanine scanning library of GRP78
T1 sequence (P11021 19-654 R261A limits assumed): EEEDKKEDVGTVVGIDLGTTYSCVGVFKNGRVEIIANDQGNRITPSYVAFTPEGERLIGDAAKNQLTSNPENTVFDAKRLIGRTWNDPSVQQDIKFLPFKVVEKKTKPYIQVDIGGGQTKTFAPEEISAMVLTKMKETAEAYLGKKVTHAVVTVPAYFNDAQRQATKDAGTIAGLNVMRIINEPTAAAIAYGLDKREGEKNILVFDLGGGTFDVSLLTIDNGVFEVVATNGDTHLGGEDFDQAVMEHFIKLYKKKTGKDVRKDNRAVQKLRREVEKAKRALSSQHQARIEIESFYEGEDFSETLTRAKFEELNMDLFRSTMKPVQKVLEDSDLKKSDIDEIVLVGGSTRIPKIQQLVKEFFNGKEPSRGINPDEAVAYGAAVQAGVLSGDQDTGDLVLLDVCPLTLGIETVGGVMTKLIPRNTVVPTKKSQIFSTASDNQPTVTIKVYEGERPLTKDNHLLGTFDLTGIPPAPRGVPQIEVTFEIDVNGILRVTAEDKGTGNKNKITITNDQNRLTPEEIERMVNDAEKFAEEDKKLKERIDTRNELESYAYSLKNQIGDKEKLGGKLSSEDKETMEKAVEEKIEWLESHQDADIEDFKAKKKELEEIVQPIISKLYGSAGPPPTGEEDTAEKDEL
Experimental: (§1) To characterize the binding properties of the antibodies described in Example 1 for GRP78, epitope mapping analysis was carried out by alanine scanning mutagenesis. An alanine scanning library of GRP78 was constructed. Each anti-GRP78 antibody was then screened for binding to each individual GRP78 variant, allowing identification of the target protein residues involved in antibody binding.
(§2) Binding of each test antibody to each GRP78 variant in the alanine scanning library was determined by high-throughput flow cytometry under high stringency conditions (e.g., increased pH, increased salinity, increased temperature and/or increased wash time). Also included in the experiment was a commercially-available monoclonal antibody, 1H11-1H7, which was verified to bind to the wildtype (WT) GRP78 on cells and thus determined to be a suitable positive control under these conditions (Thermo Fisher Scientific, Waltham, MA). Antibody binding to each of the GRP78 variants as measured by the fluorescence signal (raw fluorescence data minus the background), was normalized to its binding to the WT GRP78. For each GRP78 variant, such normalized binding to the test antibodies was plotted relative to that to the control antibody.

[2] = target: T2, GRP78 alanine scanning variant H265A (human, UniProt P11021 19-654)
T2 construct: Member of the alanine scanning library of GRP78
T2 sequence (P11021 19-654 H265A limits assumed): as the sequence (P11021 19-654 R261A limits assumed) above, with A243R, H247A counted along it
Experimental: as §1, §2

[3] = target: T3, GRP78 alanine scanning variant E329A (human, UniProt P11021 19-654)
T3 construct: Member of the alanine scanning library of GRP78
T3 sequence (P11021 19-654 E329A limits assumed): as the sequence (P11021 19-654 R261A limits assumed) above, with A243R, E311A counted along it
Experimental: as §1, §2

[4] = target: T4, GRP78 alanine scanning variant R279A (human, UniProt P11021 19-654)
T4 construct: Member of the alanine scanning library of GRP78
T4 sequence (P11021 19-654 R279A limits assumed): as the sequence (P11021 19-654 R261A limits assumed) above, with A243R, R261A counted along it
Experimental: as §1, §2

Binder	% binding normalized to WT GRP78 [1]	% binding normalized to WT GRP78 [2]	% binding normalized to WT GRP78 [3]	% binding normalized to WT GRP78 [4]
B1	< 20%	< 20%	< 20%	
B2	< 20%			< 20%
